Experimental data from patent US20230381279A1, “PHARMACEUTICAL COMPOSITION FOR PREVENTING OR TREATING LUPUS-RELATED DISEASES COMPRISING GIP DERIVATIVE OR LONG-ACTING CONJUGATE THEREOF” (HANMI PHARM. CO., LTD., priority 2020, published 2023).
Non-standard residues stand in square brackets, D forms with d. No end group written: not given here. Aib = CC(C)(N)C(=O)O

Biological target: T1, human GIP receptor (human, UniProt P48546 22-466)
T1 sequence (looked up): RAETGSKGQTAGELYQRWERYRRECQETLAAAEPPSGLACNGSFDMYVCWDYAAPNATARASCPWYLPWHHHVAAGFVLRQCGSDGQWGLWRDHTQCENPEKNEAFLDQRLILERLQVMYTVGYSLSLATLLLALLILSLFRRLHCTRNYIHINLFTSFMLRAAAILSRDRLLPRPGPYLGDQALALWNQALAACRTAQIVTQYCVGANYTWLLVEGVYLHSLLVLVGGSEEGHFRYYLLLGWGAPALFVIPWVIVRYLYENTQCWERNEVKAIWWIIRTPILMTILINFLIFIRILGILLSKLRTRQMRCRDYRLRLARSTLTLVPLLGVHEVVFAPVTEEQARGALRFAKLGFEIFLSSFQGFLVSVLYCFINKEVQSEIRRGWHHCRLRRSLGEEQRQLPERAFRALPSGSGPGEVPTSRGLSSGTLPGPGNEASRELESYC
Assay: cell-based or functional assay
Conditions: not given

Row | Molecule | In vitro activity of GIP derivative compared to human native GIP in human GIP receptor (%) (cAMP EC50, CHO cells expressing human GIP receptor)
1 | Y[Aib]EGTFISDYSIAMDAIAQQDFVNWLLAQKPSSGAPPPSC (not fully specified) [GIP derivative of SEQ ID NO: 1] | 49.3%
2 | Y[Aib]EGTFISDYSIYLDAQAAKEFIAWLLAGGPSSGAPPPSC (not fully specified) [GIP derivative of SEQ ID NO: 10] | 13.9%
3 | Y[Aib]EGTFISDYSIAMDAIAQQDFVNWLLAQKGKKNDWKHNITQC (not fully specified) [GIP derivative of SEQ ID NO: 11] | 122%
4 | Y[Aib]EGTFISDYSIYLDKQAA[Aib]EFVNWLLAQKGKKNDWKHNITQC (not fully specified) [GIP derivative of SEQ ID NO: 12] | 49.2%
5 | Y[Aib]EGTFISDYSIYLDKQAA[Aib]EFVNWLLAQKC (not fully specified) [GIP derivative of SEQ ID NO: 13] | 31.1%
6 | Y[Aib]EGTFISDYSIYLDAQAA[Aib]EFVNWLLAQKC (not fully specified) [GIP derivative of SEQ ID NO: 14] | 17.4%
7 | Y[Aib]EGTFISDYSIAMDKIAQQDFVNWLLAQKPSSGAPPPSC (not fully specified) [GIP derivative of SEQ ID NO: 15] | 31.1%
8 | Y[Aib]EGTFISDYSIAMDGIAQQDFVNWLLAQKPSSGAPPPSC (not fully specified) [GIP derivative of SEQ ID NO: 16] | 11.3%
9 | Y[Aib]EGTFISDYSIALEKQAQQDFVNWLLAGGPSSGAPPPSC (not fully specified) [GIP derivative of SEQ ID NO: 17] | 111%
10 | Y[Aib]EGTFISDYSIYLDKQAAQEFVNWLLAQKPSSGAPPPSC (not fully specified) [GIP derivative of SEQ ID NO: 18] | 13.6%
11 | Y[Aib]EGTFISDYSIYLDKQAA[Aib]EFVNWLL[Aib]GHPSSGAPPPSC (not fully specified) [GIP derivative of SEQ ID NO: 19] | 66.7%
12 | Y[Aib]EGTFISDYSIAMDAIAQQDFVNWLLAGGPSSGAPPPSC (not fully specified) [GIP derivative of SEQ ID NO: 2] | 13.9%
13 | Y[Aib]EGTFISDYSIYLDKQAA[Aib]EFVNWLL[Aib]GGPSSGAPPPSC (not fully specified) [GIP derivative of SEQ ID NO: 20] | 75.3%
14 | Y[Aib]EGTFISDYSI[Aib]LDKQAA[Aib]EFVNWLL[Aib]GGPSSGAPPPSC (not fully specified) [GIP derivative of SEQ ID NO: 21] | 123%
15 | Y[Aib]EGTFISDYSIYLDKQAA[Aib]EFVNWLLAGHPSSGAPPPSC (not fully specified) [GIP derivative of SEQ ID NO: 22] | 71.6%
16 | Y[Aib]EGTFISDYSIYLDKQAQKEFVNWLL[Aib]GGPSSGAPPPSC (not fully specified) [GIP derivative of SEQ ID NO: 23] | 87.6%
17 | Y[Aib]EGTFISDYSI[Aib]LDKQAA[Aib]EFVNWLL[Aib]GHPSSGAPPPSC (not fully specified) [GIP derivative of SEQ ID NO: 24] | 183%
18 | Y[Aib]EGTFISDYSIYLDKQAA[Aib]EFVQWLI[Aib]GGPSSGAPPPSC (not fully specified) [GIP derivative of SEQ ID NO: 25] | 78.3%
19 | Y[Aib]EGTFISDYSIYLDKQAA[Aib]EFVQWLIAGHPSSGAPPPC (not fully specified) [GIP derivative of SEQ ID NO: 26] | 66.7%
20 | Y[Aib]EGTFISDYSI[Aib]MDAIAQQDFVNWLLAGGPSSGAPPPSC (not fully specified) [GIP derivative of SEQ ID NO: 3] | 15.6%
21 | Y[Aib]EGTFISDYSIYMDAIAQQDFVNWLLAGGPSSGAPPPSC (not fully specified) [GIP derivative of SEQ ID NO: 4] | 10.5%
22 | Y[Aib]EGTFISDYSIQMDAIAQQDFVNWLLAGGPSSGAPPPSC (not fully specified) [GIP derivative of SEQ ID NO: 5] | 12.1%
23 | Y[Aib]EGTFISDYSIYLDAIAQQDFVNWLLAGGPSSGAPPPSC (not fully specified) [GIP derivative of SEQ ID NO: 6] | 17.4%
24 | Y[Aib]EGTFISDYSIYLDAQAQQDFVNWLLAGGPSSGAPPPSC (not fully specified) [GIP derivative of SEQ ID NO: 7] | 19.6%
25 | Y[Aib]EGTFISDYSIYLDAQAA[Aib]DFVNWLLAGGPSSGAPPPSC (not fully specified) [GIP derivative of SEQ ID NO: 8] | 1.9%
26 | Y[Aib]EGTFISDYSIYLDAQAAKDFVNWLLAGGPSSGAPPPSC (not fully specified) [GIP derivative of SEQ ID NO: 9] | 2%

Biological target: T2, human GIP receptor (Homo sapiens, UniProt P48546)
T2 construct: expressed in transfected cells; host or cells: CHO (Chinese hamster ovary) cells
T2 sequence (P48546 22-466): T1 sequence (looked up)
Assay: In vitro activity of long-acting GIP conjugate: cAMP accumulation (LANCE cAMP kit) in CHO cells expressing human GIP receptor
Format: cell-based
Conditions: relative potency from cAMP EC50 vs human GIP, PEG-immunoglobulin Fc conjugates
Description: To measure the activity of the long-acting GIP conjugates prepared in Example 3, a method of measuring cell activity in vitro using a cell line transformed with the GIP receptor was used in the same manner as in Example 2.
In detail, to measure the activity of the long-acting GIP derivatives in the human GIP receptors, human GIP was serially diluted from 16 nM to 0.000015 nM by 4 folds, and the long-acting GIP derivatives prepared in Example 1 were each serially diluted from 50 nM to 0.000048 nM by 4 folds. The culture medium was removed from the cultured CHO cells where the human GIP receptors were expressed, 5 μl of each of the serially diluted materials was added to the cells, and then, 5 μl of buffer containing cAMP antibody was added thereto, followed by incubation at room temperature for 15 minutes. Next, the cells were lysed by adding 10 μl of detection mix containing cell lysis buffer, and then allowed for a reaction at room temperature for 90 minutes. The cell lysate obtained by the completion of the reaction was applied to the LANCE cAMP kit (PerkinElmer, USA) to calculate the EC50 value through the accumulated cAMP to be compared with each other.

Row | Molecule | In vitro activity of long-acting GIP derivative compared to human native GIP in human GIP receptor (%)
27 | YAibEGT FISDYSIALEKQAQQDFVNWLLAGGPSSGAPPPSC (Y[Aib]EGTFISDYSIALEKQAQQDFVNWLLAGGPSSGAPPPSC) [SEQ ID NO: 17] | 153.2%
28 | YAibEGT FISDYSIAMDAIAQQDFVNWLLAQKGKKNDWKHNITQC (Y[Aib]EGTFISDYSIAMDAIAQQDFVNWLLAQKGKKNDWKHNITQC) [SEQ ID NO: 11] | 84.8%
29 | YAibEGT FISDY SIAibLD KQAAAib EFVNW LLAibGG PSSGA PPPSC (Y[Aib]EGTFISDYSI[Aib]LDKQAA[Aib]EFVNWLL[Aib]GGPSSGAPPPSC) [SEQ ID NO: 21] | 148.5%
30 | YAibEGT FISDY SIAibLD KQAAAib EFVNW LLAibGH PSSGA PPPSC (Y[Aib]EGTFISDYSI[Aib]LDKQAA[Aib]EFVNWLL[Aib]GHPSSGAPPPSC) [SEQ ID NO: 24] | 123.3%
